This note sets out measurements from US20240190985A1 (published 2024).

Test [1] deals with T1, SUMO-CD99 fusion protein (SUMO fused with the extracellular domain of CD99, residues 23-122) (UniProt P14209 23-122, biotin on the AviTag (BirA, in vitro)).
T1 chain: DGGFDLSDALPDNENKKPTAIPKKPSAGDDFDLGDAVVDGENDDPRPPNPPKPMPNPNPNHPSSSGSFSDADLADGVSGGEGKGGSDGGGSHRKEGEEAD
The experiment in a line: bead-based titration (flow cytometry); apparent KD, nM Fv, scFv-Fc. Background: In flow cytometry, cells or beads pass a laser one at a time.

In test [2] the target is T2, CD99 endogenously expressed on cells (Jurkat, KOPT-K1) (UniProt P14209 23-185, O-linked glycosylation (natural, on cells)).
T2 chain: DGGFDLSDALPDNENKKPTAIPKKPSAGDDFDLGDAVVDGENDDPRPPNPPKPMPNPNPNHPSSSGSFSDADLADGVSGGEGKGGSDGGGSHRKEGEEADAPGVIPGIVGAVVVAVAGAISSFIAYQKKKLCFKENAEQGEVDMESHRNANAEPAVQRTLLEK
The test is described as follows: cell binding; apparent KD; nM Fv; avid.

In test [3] the target is T2, CD99 endogenously expressed on cells …. The experiment in a line: cell binding; apparent KD; nM molecule; avid.
Test [4] has the same target. The test is described as follows: cell binding; apparent KD; nM Fv.
Test [5] has the same target. The experiment in a line: cell binding; apparent KD; nM molecule.

B1: clone 22 in the scFv-Fc format (Fc fusion)
chain: QVQLQQSGPGLVKPSQTLSLTCAISGDSVSSNSAAWNWIRQSPSRGLEWLGRTYYRSKWYNDYAVSVKSRITINPDTSKNQFSLQLNSVTPEDTAVYYCARGSYGSGLVWGQGTTVTVSSGSASAPTGILGSGGGGSGGGGSGGGGSNFMLTQPHSVSESPGKTVTISCTGSSGSIASNYVQWYQQRPGSAPTTVIYEDDQRPSGVPDRFSGSLDTSSNSASLTISGLRPEDEADYYCQSYDNKDNVVFGGGTKVTVLSGSSSSLEGCKPCICTVPEVSSVFIFPPKPKDVLTITLTPKVTCVVVDISKDDPEVQFSWFVDDVEVHTAQTQPREEQFNSTFRSVSELPIMHQDWLNGKEFKCRVNSAAFPAPIEKTISKTKGRPKAPQVYTIPPPKEQMAKDKVSLTCMITDFFPEDITVEWQWNGQPAENYKNTQPIMDTDGSYFVYSKLNVQKSNWEAGNTFTCSVLHEGLHNHHTEKSLSHSPGKGGGGLNDIFEAQKIEWHESRHHHHHH
As to B1, in test [1], the Kd came out at 18 nM.

B2: clone 10 in the scFv-Fc format (Fc fusion)
chain: QVQLQQSGPVLVKPSQTLSLTCAISGDSVSSDTTAWSWIRQSPSRGLEWLGWTYYRSKWFNYYAVSVKSRVTINPDTSKNQFSLQLSSVTPEDTAVYYCARGNGNGGMDVWGQGTTVTVSSGILGSGGGGSGGGGSGGGGSSYVLTQPPSVSVSPGQTARITCSGDALPKQYAYWYQQKPGQAPVLVIFKDSERPSGIPERFSGSSSGTTVTLTISGVQAEDEADYYCQSADNSGFYQVFGGGTQLTVLSGSSSSLEGCKPCICTVPEVSSVFIFPPKPKDVLTITLTPKVTCVVVDISKDDPEVQFSWFVDDVEVHTAQTQPREEQFNSTFRSVSELPIMHQDWLNGKEFKCRVNSAAFPAPIEKTISKTKGRPKAPQVYTIPPPKEQMAKDKVSLTCMITDFFPEDITVEWQWNGQPAENYKNTQPIMDTDGSYFVYSKLNVQKSNWEAGNTFTCSVLHEGLHNHHTEKSLSHSPGKGGGGLNDIFEAQKIEWHESRHHHHHH
As for B2, the Kd in test [1] is 14 nM.

B3: 10A1 IgG-E345R (antibody)
heavy: QVQLQQSGPVLVKPSQTLSLTCAISGDSISSDTTAWSWIRRSPSRGLEWLGWTYYRSKWFNYYAVSVKGRVTINPDTSKNQFSLQLSSVTPEDTAVYYCARGNGNGGMDVWGQGTTVTVSSASTKGPSVFPLAPSSKSTSGGTAALGCLVKDYFPEPVTVSWNSGALTSGVHTFPAVLQSSGLYSLSSVVTVPSSSLGTQTYICNVNHKPSNTKVDKKVEPKSCDKTHTCPPCPAPEAAGGPSVFLFPPKPKDTLMISRTPEVTCVVVDVSHEDPEVKFNWYVDGVEVHNAKTKPREEQYNSTYRVVSVLTVLHQDWLNGKEYKCKVSNKALGAPIEKTISKAKGQPRRPQVYTLPPSREEMTKNQVSLTCLVKGFYPSDIAVEWESNGQPENNYKTTPPVLDSDGSFFLYSKLTVDKSRWQQGNVFSCSVMHEALHNHYTQKSLSLSPGK
light: SYVLTQPASASVSPGQTARITCSGDALPKQYAYWYQQKPGQAPVLVIFKDSERPSGVPERFSGSSSGTTVTLTISGAQAEDEADYYCQSVDNSGFYQVFGGGTQLTVLRTVAAPSVFIFPPSDEQLKSGTASVVCLLNNFYPREAKVQWKVDNALQSGNSQESVTEQDSKDSTYSLSSTLTLSKADYEKHKVYACEVTHQGLSSPVTKSFNRGEC
As to B3, the Kd in test [2] was determined as 16 nM; in test [3], 8 nM.

B4: 10A1 IgG-LALA (antibody)
heavy: QVQLQQSGPVLVKPSQTLSLTCAISGDSISSDTTAWSWIRRSPSRGLEWLGWTYYRSKWFNYYAVSVKGRVTINPDTSKNQFSLQLSSVTPEDTAVYYCARGNGNGGMDVWGQGTTVTVSSASTKGPSVFPLAPSSKSTSGGTAALGCLVKDYFPEPVTVSWNSGALTSGVHTFPAVLQSSGLYSLSSVVTVPSSSLGTQTYICNVNHKPSNTKVDKKVEPKSCDKTHTCPPCPAPEAAGGPSVFLFPPKPKDTLMISRTPEVTCVVVDVSHEDPEVKFNWYVDGVEVHNAKTKPREEQYNSTYRVVSVLTVLHQDWLNGKEYKCKVSNKALGAPIEKTISKAKGQPREPQVYTLPPSREEMTKNQVSLTCLVKGFYPSDIAVEWESNGQPENNYKTTPPVLDSDGSFFLYSKLTVDKSRWQQGNVFSCSVMHEALHNHYTQKSLSLSPGK
light: SYVLTQPASASVSPGQTARITCSGDALPKQYAYWYQQKPGQAPVLVIFKDSERPSGVPERFSGSSSGTTVTLTISGAQAEDEADYYCQSVDNSGFYQVFGGGTQLTVLRTVAAPSVFIFPPSDEQLKSGTASVVCLLNNFYPREAKVQWKVDNALQSGNSQESVTEQDSKDSTYSLSSTLTLSKADYEKHKVYACEVTHQGLSSPVTKSFNRGEC
Regarding B4, the values for the Kd in test [2] and in test [3] were 5.4 nM and 2.7 nM, respectively.

B5: 10A1 IgG-RGY (antibody)
heavy: QVQLQQSGPVLVKPSQTLSLTCAISGDSISSDTTAWSWIRRSPSRGLEWLGWTYYRSKWFNYYAVSVKGRVTINPDTSKNQFSLQLSSVTPEDTAVYYCARGNGNGGMDVWGQGTTVTVSSASTKGPSVFPLAPSSKSTSGGTAALGCLVKDYFPEPVTVSWNSGALTSGVHTFPAVLQSSGLYSLSSVVTVPSSSLGTQTYICNVNHKPSNTKVDKKVEPKSCDKTHTCPPCPAPEAAGGPSVFLFPPKPKDTLMISRTPEVTCVVVDVSHEDPEVKFNWYVDGVEVHNAKTKPREEQYNSTYRVVSVLTVLHQDWLNGKEYKCKVSNKALGAPIEKTISKAKGQPRRPQVYTLPPSREEMTKNQVSLTCLVKGFYPSDIAVEWESNGQPENNYKTTPPVLDSDGSFFLYSKLTVDKSRWQQGNVFSCSVMHGALHNHYTQKYLSLSPGK
light: SYVLTQPASASVSPGQTARITCSGDALPKQYAYWYQQKPGQAPVLVIFKDSERPSGVPERFSGSSSGTTVTLTISGAQAEDEADYYCQSVDNSGFYQVFGGGTQLTVLRTVAAPSVFIFPPSDEQLKSGTASVVCLLNNFYPREAKVQWKVDNALQSGNSQESVTEQDSKDSTYSLSSTLTLSKADYEKHKVYACEVTHQGLSSPVTKSFNRGEC
In the case of B5, the Kd is 6.2 nM in test [2] and 0.5 nM in test [3].

B6: 10A1 IgG-HCscFv (antibody)
heavy: QVQLQQSGPVLVKPSQTLSLTCAISGDSISSDTTAWSWIRRSPSRGLEWLGWTYYRSKWFNYYAVSVKGRVTINPDTSKNQFSLQLSSVTPEDTAVYYCARGNGNGGMDVWGQGTTVTVSSASTKGPSVFPLAPSSKSTSGGTAALGCLVKDYFPEPVTVSWNSGALTSGVHTFPAVLQSSGLYSLSSVVTVPSSSLGTQTYICNVNHKPSNTKVDKKVEPKSCDKTHTCPPCPAPEAAGGPSVFLFPPKPKDTLMISRTPEVTCVVVDVSHEDPEVKFNWYVDGVEVHNAKTKPREEQYNSTYRVVSVLTVLHQDWLNGKEYKCKVSNKALGAPIEKTISKAKGQPREPQVYTLPPSREEMTKNQVSLTCLVKGFYPSDIAVEWESNGQPENNYKTTPPVLDSDGSFFLYSKLTVDKSRWQQGNVFSCSVMHEALHNHYTQKSLSLSPGKSSGSSGSSSSSGSSSQVQLQQSGPVLVKPSQTLSLTCAISGDSISSDTTAWSWIRRSPSRGLEWLGWTYYRSKWFNYYAVSVKGRVTINPDTSKNQFSLQLSSVTPEDTAVYYCARGNGNGGMDVWGQGTTVTVSSGSSSSSSGSSGSSSSSYVLTQPASASVSPGQTARITCSGDALPKQYAYWYQQKPGQAPVLVIFKDSERPSGVPERFSGSSSGTTVTLTISGAQAEDEADYYCQSVDNSGFYQVFGGGTQLTVL
light: SYVLTQPASASVSPGQTARITCSGDALPKQYAYWYQQKPGQAPVLVIFKDSERPSGVPERFSGSSSGTTVTLTISGAQAEDEADYYCQSVDNSGFYQVFGGGTQLTVLRTVAAPSVFIFPPSDEQLKSGTASVVCLLNNFYPREAKVQWKVDNALQSGNSQESVTEQDSKDSTYSLSSTLTLSKADYEKHKVYACEVTHQGLSSPVTKSFNRGEC
Consider B6, for which the Kd in test [2] came out at 5.3 nM; in test [3] it was 1.3 nM.

B7: 10A1 Fab (Fab, V domains shown)
VH: QVQLQQSGPVLVKPSQTLSLTCAISGDSISSDTTAWSWIRRSPSRGLEWLGWTYYRSKWFNYYAVSVKGRVTINPDTSKNQFSLQLSSVTPEDTAVYYCARGNGNGGMDVWGQGTTVTVSS
VL: SYVLTQPASASVSPGQTARITCSGDALPKQYAYWYQQKPGQAPVLVIFKDSERPSGVPERFSGSSSGTTVTLTISGAQAEDEADYYCQSVDNSGFYQVFGGGTQLTVL
B7: the Kd in test [4] and in test [5] was over 250 nM each time.
